Reference: patent publication US6713294B1, “DNA glycosylases and their use” (priority 1996, dated 2004)
Where a chain is given by its changes, count along the chain named.

B1: Tyr147Phe: human UDG (UNGΔ84) mutant with Tyr147 replaced by Phe (protein)
chain: MGVFCLGPWGLGRKLRTPGKGPLQLLSRLCGDHLQAIPAKKAPAGQEEPGTPPSSPLSAEQLDRIQRNKAAALLRLAARNVPVGFGESWKKHLSGEFGKPYFIKLMGFVAEERKHYTVYPPPHQVFTWTQMCDIKDVKVVILGQDPFHGPNQAHGLCFSVQRPVPPPPSLENIYKELSTDIEDFVHPGHGDLSGWAKQGVLLLNAVLTVRAHQANSHKERGWEQFTDAVVSWLNQNSNGLVFLLWGSYAQKKGSAIDRKRHHVLQTAHPSPLSVYRGFFGCRHFSKTNELLQKSGKKPIDWKEL
B2: Gln144Leu: human UDG (UNGΔ84) mutant with Gln144 replaced by Leu (protein)
chain: B1 chain with Q144L, F147Y
B3: His268Leu: human UDG (UNGΔ84) mutant with His268 replaced by Leu (protein)
chain: B1 chain with F147Y, H268L
B4: Asp145Asn: human UDG (UNGΔ84) mutant with Asp145 replaced by Asn (protein)
chain: B1 chain with D145N, F147Y
B5: Ser169Ala: human UDG (UNGΔ84) mutant with Ser169 replaced by Ala (protein)
chain: B1 chain with F147Y, S169A
B6: Asn204Gln: human UDG (UNGΔ84) mutant with Asn204 replaced by Gln (protein)
chain: B1 chain with F147Y, N204Q
B7: Asp145Glu: human UDG (UNGΔ84) mutant with Asp145 replaced by Glu (protein)
chain: B1 chain with D145E, F147Y

Experiments:
Type in all cases: biochemical
[1] = test system: [^3H]thymine-labelled DNA; test: Release of [3H]thymine from ds or ss labelled DNA; conditions: 10 μM, 10 min, 0 = below detection limit; for T-ds, pmol excised per min per mg protein: double-stranded thymine DNA; for T-ss, pmol excised per min per mg protein: single-stranded thymine DNA
Method: (§1) To test enzymatic substrate specificities, 250 ng purified human “wild type” UDG (UNGΔ84), UNGΔ84Tyr147Ala or UNGΔ84Asn204Asp, were mixed with 200 ng ds- or ss-[^3H]cytosine-labelled DNA (150 mCi/mmol), or ds- or ss-[^3H]thymine-labelled DNA (100 mCi/mmol) in 10 mM NaCl, 20 mM Tris-HCl (pH 7.5), 1 mM EDTA, 1 mM dithiothreitol and 0.5 mg/ml bovine serum albumin (final concentrations) in 20 μl separate reactions. The final concentrations of the [^3H]cytosine-DNA (C) and [^3H]thymine-DNA (T) substrates were 6.5 μM and 10 μM, respectively. Release of radioactivity as a function of time was measured at 37° C. These conditions are later referred to as standard conditions. Substrate synthesis and processing of samples for scintillation counting were as described in Krokan and Wittwer (1981) Nucl. Acids Res., 9: 2599-2613. Single-stranded substrate was generated by boiling double-stranded substrate for 10 min, followed by rapid cooling on ice.
(§2) For measuring release of uracil from double-stranded (U-ds) or single-stranded (U-ss) DNA the various mutant enzymes (prepared as described in Example 1 and by analogous site-directed mutagenesis methods and identical expression and purification methods) were incubated with 200 ng ds- or ss-[^3H]dUMP-labelled DNA (500 mCi/mmol, 2 μM final concentration) in 20 μl separate reactions for 10 min under standard conditions as described in Example 1. For measuring release of [^3H]cytosine or [^3H]thymine, assays were performed as described in Example 1 using an incubation time of 10 min. Uracil inhibition was analysed by adding 5 mM uracil (final concentration) to a standard U-ds assay. 0 activity indicates activity below detection limit (10 pmol per mg protein per min) with 100 ng enzyme and 200 ng DNA substrate at standard conditions.

[^3H]dUMP-labelled DNA [2] = Kinetic parameters on uracil substrate; conditions: for Kcat: calculated from Vmax assuming Mr=25000
Method: The final concentrations of the [^3H]cytosine-DNA (C) and [^3H]thymine-DNA (T) substrates were 6.5 μM and 10 μM, respectively. Release of radioactivity as a function of time was measured at 37° C. These conditions are later referred to as standard conditions. Substrate synthesis and processing of samples for scintillation counting were as described in Krokan and Wittwer (1981) Nucl. Acids Res., 9: 2599-2613. Single-stranded substrate was generated by boiling double-stranded substrate for 10 min, followed by rapid cooling on ice.
The kinetic parameters were determined using six different substrate concentrations to obtain the Km and Vmax values. Duplicate samples were incubated for 20 min using standard assay buffer conditions and substrates as specified. Km and Vmax were calculated using the computer program Enzpack, version 3.0 after the method of Wilkinson (1961) Biochem. J., 80: 324-332.

[3] = test system: [^3H]cytosine-labelled DNA; test: Release of [3H]cytosine from ds or ss labelled DNA; conditions: 6.5 μM, 10 min, 0 = below detection limit; for C-ds, pmol excised per min per mg protein: double-stranded cytosine DNA; for C-ss, pmol excised per min per mg protein: single-stranded cytosine DNA
Method: as §1, §2

[^3H]dUMP-labelled DNA [4] = Release of uracil from ds or ss [3H]dUMP-labelled DNA; conditions: 2 μM, 10 min, 37° C.; for U-ds, pmol excised per min per mg protein: double-stranded uracil DNA, 0 = below detection limit (10 pmol per mg protein per min); for U-ss, pmol excised per min per mg protein: single-stranded uracil DNA, 0 = below detection limit
Method: as §1, §2

[^3H]dUMP-labelled DNA [5] = Uracil inhibition in standard U-ds assay; conditions: 5 mM uracil added to standard U-ds assay
Method: as §2

Row | Molecule | T-ds, pmol excised per min per mg protein [1] | T-ss, pmol excised per min per mg protein [1] | Km ([^3H]dUMP-labelled DNA [2]; U-ds substrate) [µM] | Kcat ([^3H]dUMP-labelled DNA [2]; U-ds substrate) [s⁻¹] | Km ([^3H]dUMP-labelled DNA [2]; U-ss substrate) [µM] | Kcat ([^3H]dUMP-labelled DNA [2]; U-ss substrate) [s⁻¹] | C-ds, pmol excised per min per mg protein [3] | C-ss, pmol excised per min per mg protein [3] | U-ds, pmol excised per min per mg protein ([^3H]dUMP-labelled DNA [4]) | U-ss, pmol excised per min per mg protein ([^3H]dUMP-labelled DNA [4]) | Inhibition 5 mM Uracil ([^3H]dUMP-labelled DNA [5]) [%]
1 | B1 | 0 pmol excised per min per mg protein | 0 pmol excised per min per mg protein | 0.16 | 20.42 | 0.1 | 39.5 | 0 pmol excised per min per mg protein | 0 pmol excised per min per mg protein | 3.2 × 10^7 pmol excised per min per mg protein | 6.3 × 10^7 pmol excised per min per mg protein | 50
2 | B2 | 0 pmol excised per min per mg protein | 0 pmol excised per min per mg protein | – | – | – | – | 0 pmol excised per min per mg protein | 0 pmol excised per min per mg protein | 3.4 × 10^4 pmol excised per min per mg protein | 4.8 × 10^4 pmol excised per min per mg protein | 25
3 | B3 | 0 pmol excised per min per mg protein | 0 pmol excised per min per mg protein | – | – | – | – | 0 pmol excised per min per mg protein | 0 pmol excised per min per mg protein | 1.3 × 10^5 pmol excised per min per mg protein | 2.6 × 10^5 pmol excised per min per mg protein | 75
4 | B4 | 0 pmol excised per min per mg protein | 0 pmol excised per min per mg protein | – | – | – | – | 0 pmol excised per min per mg protein | 0 pmol excised per min per mg protein | 1.4 × 10^4 pmol excised per min per mg protein | 1.1 × 10^4 pmol excised per min per mg protein | 80
5 | B5 | 0 pmol excised per min per mg protein | 0 pmol excised per min per mg protein | – | – | – | – | 0 pmol excised per min per mg protein | 0 pmol excised per min per mg protein | 3.1 × 10^6 pmol excised per min per mg protein | 5.6 × 10^6 pmol excised per min per mg protein | 80
6 | B6 | 0 pmol excised per min per mg protein | 0 pmol excised per min per mg protein | 0.4 | 1.1 | 0.23 | 1.48 | 0 pmol excised per min per mg protein | 0 pmol excised per min per mg protein | 1.5 × 10^6 pmol excised per min per mg protein | 2.2 × 10^6 pmol excised per min per mg protein | 70
7 | B7 | 0 pmol excised per min per mg protein | 0 pmol excised per min per mg protein | – | – | – | – | 0 pmol excised per min per mg protein | 0 pmol excised per min per mg protein | 5.5 × 10^4 pmol excised per min per mg protein | 8.5 × 10^4 pmol excised per min per mg protein | 80
